From the supplement of paper PMC10567573 come the findings set out here.

The data set is described as follows: protein stability index of a GFP-peptide fusion (GPS, HEK-293T) (PSI 1-6); higher = more stable. Particulars: c terminus: a fixed tail appended.

± gives the standard deviation.
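Further: 24-mer peptide tiles fused after GFP, lentivirally expressed, FACS-sorted into six equal bins by GFP/DsRed ratio, decoded by Illumina sequencing, PSI is the read-weighted mean bin number.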

With NFFRMFDRNTKRDVTLEASRESSK [PPP2R2C], the protein stability index stood at 3.74 ± 0.32 (treatment: DMSO) and 3.73 ± 0.26 (treatment: MLN4924 1 uM, 8 h).

Turning to ESFFVDYEENEGAGPYLLNGSYLE [ADAMTSL2], the protein stability index came to 3.658 ± 0.034 (treatment: DMSO) and 3.82 ± 0.072 (treatment: MLN4924 1 uM, 8 h).

AAATTTTTTSAATATTAPPALDIF [SNAP91]: the protein stability index runs as follows: (treatment: DMSO) 4.45 ± 0.24; (treatment: MLN4924 1 uM, 8 h) 4.61 ± 0.16.

Take NHPDLAKDLTEYLKVRSHDPEEAI [PDS5B]: the protein stability index runs as follows: (treatment: DMSO) 4.7 ± 0.23; (treatment: MLN4924 1 uM, 8 h) 4.43 ± 0.59.

QKLIVNLKPEKSYSFVLTNRGNSA [PTPRD]: the protein stability index was 2.58 ± 0.36 (treatment: DMSO) and 2.58 ± 0.13 (treatment: MLN4924 1 uM, 8 h).

As to TFAGDTCQVALNFANEEEAKKFRK [WASL], the protein stability index (treatment: DMSO) was determined as 4.75 ± 0.12 and the protein stability index (treatment: MLN4924 1 uM, 8 h) amounted to 4.73 ± 0.32.

Take LLSTSLDAKDELEERLERCMSIVT [INTS3]: the protein stability index runs as follows: (treatment: DMSO) 3.38 ± 0.22; (treatment: MLN4924 1 uM, 8 h) 3.51 ± 0.37.

For VQTWTQPRLCYLVKEGGSYGFSLK [PDZK1], the protein stability index came out at 2.13 ± 0.24 (treatment: DMSO) and 2 ± 0.33 (treatment: MLN4924 1 uM, 8 h).

As for HFCVDDTKLLSGSYDCTVKLWDPV [WDR88], the protein stability index (treatment: DMSO) was found to be 2.65 ± 0.24 and the protein stability index (treatment: MLN4924 1 uM, 8 h) stood at 2.58 ± 0.23.

ITIGYRVYHSYDLPWFRTLSWYFL [CDS1]: the protein stability index reads like this: (treatment: DMSO) 2.92 ± 0.42; (treatment: MLN4924 1 uM, 8 h) 3.1 ± 0.6.

Regarding QAQIDQYLGLVRTHINAVVAKIQA [RTN1], the protein stability index by setting is: (treatment: DMSO) 2.08 ± 0.35; (treatment: MLN4924 1 uM, 8 h) 2.35 ± 0.28.

Consider NSTLDPHGHLILHSMHKYQPRIHL [TBX6], for which the protein stability index reads like this: (treatment: DMSO) 2.19 ± 0.17; (treatment: MLN4924 1 uM, 8 h) 2.34 ± 0.26.

With LHSACGLSKDHQEVETEGPESADT [TOR1AIP2], the protein stability index reads like this: (treatment: DMSO) 5.36 ± 0.26; (treatment: MLN4924 1 uM, 8 h) 5.53 ± 0.16.

As to KDPYGKPVDLWACGVILYILLVGY [CAMK2A], the protein stability index was 3.16 ± 0.97 (treatment: DMSO) and 3.07 ± 0.32 (treatment: MLN4924 1 uM, 8 h).

TPETRAKFTQDNLCRAQRERLASA [TEKT4]: the protein stability index runs as follows: (treatment: DMSO) 4.17 ± 0.23; (treatment: MLN4924 1 uM, 8 h) 4.35 ± 0.35.

Turning to LKRAFEAANLPALVLKIMSGTFAP [NEK8], the protein stability index was 2.57 ± 0.59 (treatment: DMSO) and 2.71 ± 0.57 (treatment: MLN4924 1 uM, 8 h).

FVETRLRDLPDTPRRFTFYPCVLA [TRIM39] had a protein stability index (treatment: DMSO) of 2.63 ± 0.68 and a protein stability index (treatment: MLN4924 1 uM, 8 h) of 2.16 ± 0.071.

Take PVVKKKGVKRKADTTTPTTSAITA [BRD3]: the protein stability index worked out at 5.03 ± 0.29 (treatment: DMSO) and 5.01 ± 0.19 (treatment: MLN4924 1 uM, 8 h).

For NLTRRFSDLGFEVKCFNDLKAEEL [CASP6], the protein stability index is, setting by setting: (treatment: DMSO) 2.76 ± 0.46; (treatment: MLN4924 1 uM, 8 h) 3 ± 0.27.

For the sequence TVMILPVTHTEISPEQQFDRSVQR [TMEM175], the protein stability index runs as follows: (treatment: DMSO) 3.64 ± 0.28; (treatment: MLN4924 1 uM, 8 h) 3.76 ± 0.16.

Regarding PLSVHRPPTSGCLGPVPREDQAEA [TSPAN10], the protein stability index runs as follows: (treatment: DMSO) 5.23 ± 0.17; (treatment: MLN4924 1 uM, 8 h) 5.1 ± 0.075.

On to AQQLLREFEEATGEAGWGAGEGRL [FOXJ1], for which the protein stability index was 4.74 ± 0.16 (treatment: DMSO) and 4.66 ± 0.34 (treatment: MLN4924 1 uM, 8 h).

For the sequence VEESEASSSVSISHSASATGNVCI [LMNB1], the protein stability index was determined as 4.84 ± 0.11 (treatment: DMSO) and 4.71 ± 0.12 (treatment: MLN4924 1 uM, 8 h).

Regarding KGERGEDSSEEKHLEEPGETQNAF [CHGB], the protein stability index runs as follows: (treatment: DMSO) 5.61 ± 0.19; (treatment: MLN4924 1 uM, 8 h) 5.62 ± 0.13.

SIAPPEAEGVVLSDSPDAADSTSF [PPTC7] displayed a protein stability index (treatment: DMSO) of 5.34 ± 0.61 and a protein stability index (treatment: MLN4924 1 uM, 8 h) of 5.29 ± 0.76.

Sequence RVYVSGLMKGGADLFVENMPGFPD [APMAP] yielded a protein stability index (treatment: DMSO) of 2.56 ± 0.34 and a protein stability index (treatment: MLN4924 1 uM, 8 h) of 2.7 ± 0.35.

In the case of IMGNLLIIVTIMASQSLGSPMYFF [OR4A15], the protein stability index (treatment: DMSO) turned out to be 3.35 ± 0.29 and the protein stability index (treatment: MLN4924 1 uM, 8 h) amounted to 3.52 ± 0.3.

FTDPFFIVETLCIIWFSFELVVRF [KCNA1] returned a protein stability index (treatment: DMSO) of 3.26 ± 0.13 and a protein stability index (treatment: MLN4924 1 uM, 8 h) of 3.18 ± 0.69.

Consider LISNASDALDKIRYESLTDPSKLD [HSP90AB1], for which the protein stability index is, setting by setting: (treatment: DMSO) 3.75 ± 0.34; (treatment: MLN4924 1 uM, 8 h) 3.85 ± 0.41.

Turning to AKINIVYQELNYRSVEEAPVYSVP [SCNN1D], the protein stability index came to 2.17 ± 0.14 (treatment: DMSO) and 2.15 ± 0.45 (treatment: MLN4924 1 uM, 8 h).

As for VSRRAAAAAATVLLRTARVRRECW [SLC19A2], the protein stability index reads like this: (treatment: DMSO) 2.58 ± 0.17; (treatment: MLN4924 1 uM, 8 h) 2.99 ± 0.36.

As for TVLENEDDMLLFDEQEKGIVTKFY [FAN1], the protein stability index was determined as 3.65 ± 0.12 (treatment: DMSO) and 3.72 ± 0.26 (treatment: MLN4924 1 uM, 8 h).

As to QELLDTVLVNLVPAHKNLNKQAYD [PDS5B], the protein stability index (treatment: DMSO) was found to be 2.95 ± 0.34 and the protein stability index (treatment: MLN4924 1 uM, 8 h) is 3.02 ± 0.3.

Consider TYSLVPKKKTKVLKQRTVIEMFKS [EHMT1], for which the protein stability index came out at 2.41 ± 0.21 (treatment: DMSO) and 2.58 ± 0.34 (treatment: MLN4924 1 uM, 8 h).

The sequence PSSNNKELFYRVNYIGTKNVIETC [NSDHL] returned a protein stability index (treatment: DMSO) of 2.7 ± 0.2 and a protein stability index (treatment: MLN4924 1 uM, 8 h) of 2.55 ± 0.18.

As to DIKRGIPNYEFKLGKITFIRNSRP [UFD1], the protein stability index runs as follows: (treatment: DMSO) 2.27 ± 0.17; (treatment: MLN4924 1 uM, 8 h) 2.34 ± 0.21.
